Results taken from US20180155451A1 (published 2018).

T1: FcγRIIb, extracellular domain with C-terminal His tag (human, UniProt P31994 43-217)
T1 construct: extracellular domain; also called 2b; FcgRIIb; not shown: His tag at the C terminus
T1 sequence (looked up): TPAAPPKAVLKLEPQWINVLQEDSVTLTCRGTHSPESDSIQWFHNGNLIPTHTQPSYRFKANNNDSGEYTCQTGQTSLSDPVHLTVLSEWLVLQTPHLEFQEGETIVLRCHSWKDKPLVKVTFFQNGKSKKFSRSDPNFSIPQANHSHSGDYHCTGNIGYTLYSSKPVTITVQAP

T2: FcγRIIa H (FcγRIIa type H, His at position 131), extracellular domain with C-terminal His tag (human, UniProt P12318 34-217)
T2 construct: extracellular domain; also called 2aH; FcgRIIa H; not shown: His tag at the C terminus
T2 sequence (looked up): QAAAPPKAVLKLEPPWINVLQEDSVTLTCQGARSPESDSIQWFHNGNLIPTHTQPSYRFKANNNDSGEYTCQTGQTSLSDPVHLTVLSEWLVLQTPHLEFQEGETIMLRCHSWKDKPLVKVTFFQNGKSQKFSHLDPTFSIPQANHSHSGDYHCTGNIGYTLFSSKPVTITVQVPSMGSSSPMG


How the values were obtained:
[1] = biological target: T1, FcγRIIb, extracellular domain with …; test: SPR (Biacore), antibody captured on antigen-peptide chip, FcγR as analyte; GpH7-A5/GpH7-B3/GpL16-k0 = 100
Procedure: (§1) The heterodimerized antibodies He Abs in which one of the H chains was introduced with an alteration were assayed for their binding activities to each activating FcγR and inhibitory FcγR according to the method described in Example 4. […] The activating FcγRs in FIGS. 26, 27, 28, and 29 are FcγRIa, FcγRIIa (R), FcγRIIa (H), and FcγRIIIa, respectively.
(§2) Analysis of interaction between objective antibody and the FcγR was carried out using Biacore T100 (GE Healthcare). HBS-EP+ (GE Healthcare) was used as the running buffer, and the measurement temperature was set to 25° C. Chips produced by immobilizing the antigen peptide by the amine coupling method to a Series S Sencor Chip CM5 (GE Healthcare), or alternatively, chips produced by allowing preliminarily biotinylated antigen peptides to interact with and immobilize onto a Series S Sensor Chip SA (certified) (GE Healthcare) were used. Antibodies of interest were captured onto an antigen peptide-immobilized chip, and allowed to interact to each FcγR diluted with running buffer. To regenerate and repeatedly use the chip, the antibodies captured on the chip were washed off by reacting 10 mM glycine-HCl, pH 1.5.

[2] = biological target: T2, FcγRIIa H (FcγRIIa type H, His at …); test: as above
Procedure: as §1, §2

[3] = biological target: T2, FcγRIIa H (FcγRIIa type H, His at …); test: ratio of He/Con_2aH (FcγRIIa H) to He/Con_2b (FcγRIIb), SPR relative binding
Procedure: as §1, §2

| Binder | He/Con_2b (relative binding activity) [1] | He/Con_2aH (relative binding activity) [2] | He_2aH/2b (IIaH/IIb ratio) [3] |
| --- | --- | --- | --- |
| GpH7-A5/GpH7-B3 variant V266_08L/GpL16-k0 (antibody, human IgG1, kappa, Heterodimerized IgG1 (He Ab); mutation only in the GpH7-B3 chain; also called He Ab V266L) heavy 1: not shown heavy 2: not shown light: DIVMTQSPLSLPVTPGEPASISCQASESLVHSNRNTYLHWYLQKPGQSPQLLIYKVSNRFSGVPDRFSGSGSGTDFTLKISRVEAEDVGVYYCSQNTHVPPTFGQGTKVEIERTVAAPSVFIFPPSDEQLKSGTASVVCLLNNFYPREAKVQWKVDNALQSGNSQESVTEQDSKDSTYSLSSTLTLSKADYEKHKVYACEVTHQGLSSPVTKSFNRGEC | 236 % of control | 104 % of control | 0.44 |
| GpH7-A5/GpH7-B3 variant S239_20W/GpL16-k0 (antibody, human IgG1, kappa, Heterodimerized IgG1 (He Ab); mutation only in the GpH7-B3 chain; also called He Ab S239W) heavy 1: not shown heavy 2: not shown light: DIVMTQSPLSLPVTPGEPASISCQASESLVHSNRNTYLHWYLQKPGQSPQLLIYKVSNRFSGVPDRFSGSGSGTDFTLKISRVEAEDVGVYYCSQNTHVPPTFGQGTKVEIERTVAAPSVFIFPPSDEQLKSGTASVVCLLNNFYPREAKVQWKVDNALQSGNSQESVTEQDSKDSTYSLSSTLTLSKADYEKHKVYACEVTHQGLSSPVTKSFNRGEC | 45.1 % of control | 35.2 % of control | 0.78 |
| GpH7-A5/GpH7-B3 variant V266_04F/GpL16-k0 (antibody, human IgG1, kappa, Heterodimerized IgG1 (He Ab); mutation only in the GpH7-B3 chain; also called He Ab V266F) heavy 1: not shown heavy 2: not shown light: DIVMTQSPLSLPVTPGEPASISCQASESLVHSNRNTYLHWYLQKPGQSPQLLIYKVSNRFSGVPDRFSGSGSGTDFTLKISRVEAEDVGVYYCSQNTHVPPTFGQGTKVEIERTVAAPSVFIFPPSDEQLKSGTASVVCLLNNFYPREAKVQWKVDNALQSGNSQESVTEQDSKDSTYSLSSTLTLSKADYEKHKVYACEVTHQGLSSPVTKSFNRGEC | 57.6 % of control | 25.3 % of control | 0.44 |
| GpH7-A5/GpH7-B3 variant V266_06M/GpL16-k0 (antibody, human IgG1, kappa, Heterodimerized IgG1 (He Ab); mutation only in the GpH7-B3 chain; also called He Ab V266M) heavy 1: not shown heavy 2: not shown light: DIVMTQSPLSLPVTPGEPASISCQASESLVHSNRNTYLHWYLQKPGQSPQLLIYKVSNRFSGVPDRFSGSGSGTDFTLKISRVEAEDVGVYYCSQNTHVPPTFGQGTKVEIERTVAAPSVFIFPPSDEQLKSGTASVVCLLNNFYPREAKVQWKVDNALQSGNSQESVTEQDSKDSTYSLSSTLTLSKADYEKHKVYACEVTHQGLSSPVTKSFNRGEC | 251 % of control | 83.9 % of control | 0.33 |

Next, values leading:

| He/Con_2b (relative binding activity) [1] | He/Con_2aH (relative binding activity) [2] | He_2aH/2b (IIaH/IIb ratio) [3] | Binder |
| --- | --- | --- | --- |
| -1.1 % of control | 1.1 % of control | -1.05 | GpH7-A5/GpH7-B3 variant V266_12R/GpL16-k0 (antibody, human IgG1, kappa, Heterodimerized IgG1 (He Ab); mutation only in the GpH7-B3 chain; also called He Ab V266R) heavy 1: not shown heavy 2: not shown light: DIVMTQSPLSLPVTPGEPASISCQASESLVHSNRNTYLHWYLQKPGQSPQLLIYKVSNRFSGVPDRFSGSGSGTDFTLKISRVEAEDVGVYYCSQNTHVPPTFGQGTKVEIERTVAAPSVFIFPPSDEQLKSGTASVVCLLNNFYPREAKVQWKVDNALQSGNSQESVTEQDSKDSTYSLSSTLTLSKADYEKHKVYACEVTHQGLSSPVTKSFNRGEC |
| 10.1 % of control | 6.4 % of control | 0.63 | GpH7-A5/GpH7-B3 variant V266_09D/GpL16-k0 (antibody, human IgG1, kappa, Heterodimerized IgG1 (He Ab); mutation only in the GpH7-B3 chain; also called He Ab V266D) heavy 1: not shown heavy 2: not shown light: DIVMTQSPLSLPVTPGEPASISCQASESLVHSNRNTYLHWYLQKPGQSPQLLIYKVSNRFSGVPDRFSGSGSGTDFTLKISRVEAEDVGVYYCSQNTHVPPTFGQGTKVEIERTVAAPSVFIFPPSDEQLKSGTASVVCLLNNFYPREAKVQWKVDNALQSGNSQESVTEQDSKDSTYSLSSTLTLSKADYEKHKVYACEVTHQGLSSPVTKSFNRGEC |
| 49.4 % of control | 18.1 % of control | 0.37 | GpH7-A5/GpH7-B3 variant V266_15Y/GpL16-k0 (antibody, human IgG1, kappa, Heterodimerized IgG1 (He Ab); mutation only in the GpH7-B3 chain; also called He Ab V266Y) heavy 1: not shown heavy 2: not shown light: DIVMTQSPLSLPVTPGEPASISCQASESLVHSNRNTYLHWYLQKPGQSPQLLIYKVSNRFSGVPDRFSGSGSGTDFTLKISRVEAEDVGVYYCSQNTHVPPTFGQGTKVEIERTVAAPSVFIFPPSDEQLKSGTASVVCLLNNFYPREAKVQWKVDNALQSGNSQESVTEQDSKDSTYSLSSTLTLSKADYEKHKVYACEVTHQGLSSPVTKSFNRGEC |
